± gives the half width of the 95% confidence interval.
Assays:
[1] = folding stability dG unfold from trypsin proteolysis; higher = more stable
Method in brief: (§1)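 Sequencing followed digestion of designed mini-proteins with trypsin and chymotrypsin, each at 11 concentrations in threefold dilutions together with a no-protease condition. The mini-proteins were under 80 residues, had no cysteine, sat in a PA-tagged cDNA display construct, and were kept only if AlphaFold2 dimer inter-PAE was above 15. From the counts, Bayesian fitting gave K50, and unfolding free energy was derived against a sequence-predicted unfolded-state K50 and a shared folded-state K50, per protease or combined.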

[2] = folding stability dG unfold (combined trypsin and chymotrypsin); higher = more stable
Method in brief: as §1

[3] = folding stability dG unfold from chymotrypsin proteolysis; higher = more stable
Method in brief: as §1

| Sequence | folding stability dG unfold [1] | folding stability dG unfold [2] | folding stability dG unfold [3] |
| --- | --- | --- | --- |
| SAGGGSSVLSETVSVDPNNVTTTTTTYKAGDTTSTTTTTTTTTPPVPNLPLPPPPPVSPEAIALGLLLSAGG [r13_760_JUSTAS] | 2.71 ± 0.218 kJ/mol | 2.01 ± 0.247 kJ/mol | -0.147 ± 0.753 kJ/mol |
| SAGMLKVKIKIEIEKDGKKIELEKEIEAESEEELLKAAEELAKELEKKGIKIKKIEVEVEKIPEPEEEESAG [r5_660_TrROS_Hall] | 8.53 ± 0.502 kJ/mol | 10.5 ± 0.502 kJ/mol | 11.6 ± 0.23 kJ/mol |
| DRIEIDVEMYDGYFYKIEIRWPGNGEPRELMFPGSLSEAKDFAEDLIQEQHPGAPVDEIDVEPVPMPPGDFS [r1_80_TrROS] | 2.86 ± 0.837 kJ/mol | 7.07 ± 0.795 kJ/mol | 8.42 ± 0.209 kJ/mol |
| SAGGSAGGSAKPNNAELVKVTYDPETGDFYAFYKIKNTDTVYVLRFNKDGTVEVKEYKFSEASAGGSAGGSA [r18_521_TrMRF] | 12.4 ± 0.879 kJ/mol | 15.4 ± 0.711 kJ/mol | 16.5 ± 0.335 kJ/mol |
| SAGLEVVKKLAEELGFPVEILRVEYDPETGELTFEAVARPKDGKTRRVRIRIRVPKESDEVEIELEYFDSAG [r5_929_TrMRF] | 19.5 ± 0.46 kJ/mol | 18.9 ± 0.418 kJ/mol | 16.5 ± 0.343 kJ/mol |
| SAGGSAGGSPYKEVPVPVRIHSPDGETHEFPGTIWKSPDDGMLEIRFPGNGKKHKIPLNDIQISAGGSAGGS [r12_772_TrROS] | -6.29 ± 2.47 kJ/mol | -2.93 ± 0.92 kJ/mol | -2.54 ± 0.795 kJ/mol |
| SAGGSAGGSAGGSILLITTHPKDAEKAAKEIEKILAELDIPPDAKIEVYVVPKEYLPDESAGGSAGGSAGGS [r4_472_TrMRF] | 1.35 ± 0.146 kJ/mol | 1.38 ± 0.586 kJ/mol | 0.735 ± 0.711 kJ/mol |
| SAGGMPKLTVTITFEPPDGSTTTTRDFTSVEEAIEALRAVPDIPVEPLEDDVIRARRPDSETTVTIVESAGG [r13_143_JUSTAS] | 0.805 ± 0.293 kJ/mol | -0.716 ± 0.46 kJ/mol | -3.33 ± 1 kJ/mol |
| SAGGSAGGSAGMVITLPNGEKVEITFDKENKKITITFPDGKKVEIEIEGMSLEEILKALKSAGGSAGGSAGG [r11_729_TrROS_Hall] | 16.1 ± 0.586 kJ/mol | 15 ± 0.372 kJ/mol | 13.5 ± 0.314 kJ/mol |
| SAGGSAGGPIDLDDIKIEEIEHERNPNGMMYHEVTIRFPGGKIPVWFHPNMSLDNAVDMLRAFISAGGSAGG [r6_233_TrROS] | 5.86 ± 0.385 kJ/mol | 4.97 ± 0.46 kJ/mol | 3.41 ± 0.46 kJ/mol |
| SAEELAEAEARRLGVDPAAVALEVTEEVDPLTGKPRKIVTVTIALPDRAYVITVDASDGTVLERRPLEAASA [r9_1219_JUSTAS] | 9.77 ± 0.213 kJ/mol | 9.54 ± 0.339 kJ/mol | 9 ± 0.142 kJ/mol |
| SAGDKKTIELWFMFKTPEEARHEADSIARRLAEEGLTIKVELKDIEPMPDPDGEKYYMFEFKVTIQLPNSAG [r5_158_TrROS] | 10.7 ± 0.259 kJ/mol | 12.8 ± 0.586 kJ/mol | 13.7 ± 0.502 kJ/mol |
| SAGGSALADRIKEIARENGFEPESVQFDPGNGHLMISIEPPDGRGVVVQIDIDNNNLKIQIQPLDDSAGGSA [r15_561_TrROS] | 5.04 ± 0.314 kJ/mol | 4.33 ± 0.544 kJ/mol | 3.31 ± 0.414 kJ/mol |
| SAGGSAGGSMRLDLDDIKRVEREPTPNGMRVYEIKLKGHKLPIRYHDNKIEISPEFKDLLKDISAGGSAGGS [r20_92_TrROS] | -1.6 ± 0.795 kJ/mol | -1.06 ± 0.628 kJ/mol | -2.02 ± 0.962 kJ/mol |
| SAGGSASNLKVTYKITIGSTTITVTLPEGSEKELKKIPNAEVTPISEIEPAPPPILYFKFENNNLVSAGGSA [r15_443_JUSTAS] | 3.09 ± 0.197 kJ/mol | 4.55 ± 0.372 kJ/mol | 5.22 ± 0.711 kJ/mol |
| SAGGSKPLKKIVIPLTPEELKKLKGKKVKITIKVDGKEYEIEFIDGYAVITVPAGEKVEITKIEIESAGGSA [r2_246_TrROS_Hall] | 10.3 ± 0.628 kJ/mol | 10.1 ± 0.92 kJ/mol | 9.86 ± 0.502 kJ/mol |
| SAGMILPPNTVVTLSTTTTEELPLFTDGSGPRTTTTETVVTVEPVPVNPYPDPAVREKLLAEGKPLELLSAG [r5_624_JUSTAS] | -2.14 ± 0.544 kJ/mol | -1.11 ± 0.502 kJ/mol | -0.866 ± 0.544 kJ/mol |
| SAGGSAGGSKNVKTVTIPFNNMSPSKFIEQIKNHPVDAIEIEMPDPWYRRFLNWLKDEGIKVISAGGSAGGS [r12_610_TrROS] | 5.32 ± 0.222 kJ/mol | 6.24 ± 0.502 kJ/mol | 6.23 ± 0.753 kJ/mol |
| SAGGSAGGSAGGMTQEVTLEPLPDGTVKLLSVEAPESTVTVPVKLPGGGEEVRTLPPEALSAGGSAGGSAGG [r7_829_JUSTAS] | -0.0843 ± 0.188 kJ/mol | -0.548 ± 0.669 kJ/mol | -1.07 ± 0.628 kJ/mol |
| SAGGSAGGWKIIEVDPKKGVVMIEMDPEEGNWYVRVPNGPIQRFDSPEEIEEKFGFPVEIYPLPSAGGSAGG [r6_753_TrROS] | 5.43 ± 0.41 kJ/mol | 4.76 ± 0.711 kJ/mol | 3.42 ± 0.385 kJ/mol |
| SAGGSAMITVDPGEKTVTVEIDLPVYKSYTYPGGETKAYPLELPEEEAKKVADEIAEAFKKKLEGESAGGSA [r15_365_JUSTAS] | -2.09 ± 1.05 kJ/mol | 0.562 ± 1 kJ/mol | 2.05 ± 1.05 kJ/mol |

| Sequence | folding stability dG unfold [1] | folding stability dG unfold [2] | folding stability dG unfold [3] |
| --- | --- | --- | --- |
| SAGGSAGGSAGGMITVEVEVPGDEAEAEARREAIAEELAAEGHEDVPITVTFVSPEEAASAGGSAGGSAGGS [r10_1099_JUSTAS] | 5.38 ± 0.46 kJ/mol | 2.68 ± 1.51 kJ/mol | 1.62 ± 0.197 kJ/mol |
| SMKIKIEPLPDGSYRLVAEVPEDAEETENLFPLTGKPIVVKREKNKLVIEFDNPEEVELFAEALKKNIPLSA [r9_515_TrMRF] | 5.37 ± 0.134 kJ/mol | 6.14 ± 0.502 kJ/mol | 6.45 ± 0.351 kJ/mol |
| SAGGSAGGSAGGAEITIEEKDGKLTLTVRLPDGYVATATFDPNGKWTIKEIKVYKLPEGLSAGGSAGGSAGG [r7_826_TrROS_Hall] | 9.83 ± 1.26 kJ/mol | 12.8 ± 1.97 kJ/mol | 14.7 ± 0.322 kJ/mol |
| SAGKEVIVITVEELEKLLKALKPGEKVKIVVINKDGKKVTFTAEVKDGKVEIKEAEKDIKPGDKIFIEKSAG [r5_85_TrROS_Hall] | 7.75 ± 0.711 kJ/mol | 12.9 ± 1.92 kJ/mol | 14.6 ± 1.17 kJ/mol |
| SAGKKVRIWIVFDGDPEQAKYLAEEIAKELRQKDGHKNVDIEVIPPGQDMHQMMEWAEENNVDIVIMVSAGG [r19_89_TrROS] | 11.2 ± 0.628 kJ/mol | 15 ± 0.544 kJ/mol | 16.1 ± 0.795 kJ/mol |
| SAGGSAVVVTTDPNGTLTVYADNKVVKVKVIPLPRPDPLTGSTSTLLLVEVEVSPLKPDPLPPEFPSAGGSA [r15_515_TrMRF] | 9.25 ± 0.837 kJ/mol | 10.2 ± 0.837 kJ/mol | 11.1 ± 0.502 kJ/mol |
| SMVYVFEVPEGDPEKAEELIRAKLEEEFGYKVESVATPGGGGARVVLVVDPVEDKAYAEVIPFAPDGSPASA [r9_173_TrMRF] | -2.21 ± 0.879 kJ/mol | 2.58 ± 0.669 kJ/mol | 4.8 ± 0.837 kJ/mol |
| SAGEPDKPFTLTLKLLLPQSEDGTPLTPEEAEELAKEISTELGVEVEEIKITSNPEGNFVEIEVKLRGSAGG [r19_322_TrMRF] | 8.46 ± 0.13 kJ/mol | 10 ± 0.247 kJ/mol | 10.74 ± 0.0628 kJ/mol |
| SMSTNLVVKEKLIPPGVLVVTYKKDGKPVKVETKVVVIPPQLVVEEVLYPGGKLALKTYDPLTGTPSFELSA [r9_343_JUSTAS] | -0.509 ± 0.586 kJ/mol | 1.41 ± 1.21 kJ/mol | 2.69 ± 1.17 kJ/mol |
| SAGGSAGGSAPWLTIIFRMDTPEMAKEIANWLREDGLDIEVETEPDPNDGRFWVMITIQLPNSAGGSAGGSA [r18_455_TrROS] | 15 ± 0.669 kJ/mol | 16.6 ± 0.711 kJ/mol | 17.7 ± 0.293 kJ/mol |
| SAGGSAGGSAGSMFMIMIEYDPPGYIKVSINRYKMGPDGDFEPVEPETHEIPIPPGQPFFSAGGSAGGSAGG [r11_440_TrROS] | 8 ± 0.586 kJ/mol | 9.61 ± 0.711 kJ/mol | 9.89 ± 0.544 kJ/mol |
| SAGGSAGGSAGKPKTKTITLTLLVYDEETGEFYRIEARIEINEDGSITIEEKIEKLPLKPSAGGSAGGSAGG [r11_941_TrROS_Hall] | 11.7 ± 0.544 kJ/mol | 16.3 ± 0.502 kJ/mol | 17.4 ± 0.418 kJ/mol |
| SAGGSAGGSIKIPPGQMIHIRYEHGGKKREYSFTIDPNDGKIDEIIPPDNLPGYKIEEIHIVPSAGGSAGGS [r12_6_TrROS] | -1.8 ± 1.38 kJ/mol | 1.29 ± 1.42 kJ/mol | 3.05 ± 1.26 kJ/mol |
| SAGGSAGGSAGGATFKPGETVRVEVEVELRVFKVDEETGEIVEETETVTVRVEVEVRLESAGGSAGGSAGGS [r10_122_TrROS_Hall] | 7.84 ± 0.418 kJ/mol | 8.55 ± 0.46 kJ/mol | 9.71 ± 0.222 kJ/mol |
| SAGGSAGGSAGGMWYIRITYDNGREIWIPIGDPITIKHKDGKPVQIKEVEVYPLPPGQISAGGSAGGSAGGS [r10_20_TrROS] | 8.53 ± 0.268 kJ/mol | 10.8 ± 0.46 kJ/mol | 11.4 ± 0.134 kJ/mol |
| SAGSPEELAEKIAEELAAEYEKKNPDKKPVKIEVKEVVVDPEGGSVTIKIKFYDPDGKPLAEPVITVESAGG [r19_53_JUSTAS] | 7.3 ± 0.711 kJ/mol | 7.35 ± 0.879 kJ/mol | 7.72 ± 0.544 kJ/mol |
| SAGGSAGGSAGKPEFELIAKIEVNGKTYYILRNKETGEYLIYDLDTGKKYTIRKDDPNLLSAGGSAGGSAGG [r11_1007_TrROS_Hall] | 10.3 ± 0.669 kJ/mol | 11.6 ± 1.42 kJ/mol | 12.3 ± 0.276 kJ/mol |
| SAGGSAGGSGITPAAKKIAAEIEKKYPNEKIKVEEELLPNGYLKIKVTTDNGKKYEIIIKVGGSAGGSAGGS [r20_210_TrMRF] | 10.5 ± 0.502 kJ/mol | 13.5 ± 0.322 kJ/mol | 14.7 ± 0.222 kJ/mol |
| SAGGSAGGSKEEIRKRIAERLRELIPDAKITSIEFDEKTKKITITVDSPEVREALEKLPGIKPSAGGSAGGS [r12_623_TrROS_Hall] | 6.25 ± 0.155 kJ/mol | 6.39 ± 0.46 kJ/mol | 6.82 ± 0.368 kJ/mol |
| SAGGSASLEEVASLPASALAAAAGLTALSVEVTREPDGTVTVTIETRPPDGPVVTVTYTFPVDPAASAGGSA [r15_805_JUSTAS] | 3.55 ± 0.837 kJ/mol | 8.6 ± 1.63 kJ/mol | 10.9 ± 0.41 kJ/mol |
| SAGGSAGGSAMVVEIKPEKLPNGKYKVTVTITDPSTGKTTTTPYIVDPNKFTEEDIKKKLSSAGGSAGGSAG [r3_127_JUSTAS] | 5.72 ± 0.23 kJ/mol | 6.62 ± 0.41 kJ/mol | 6.29 ± 0.322 kJ/mol |

From the supplement of paper PMC12764529
